From patent US20030022837A1 (Stanford University, published 2003)

Target: T1, His-Cdc20 (baculovirus-expressed human Cdc20) (human, UniProt Q12834 1-499)
T1 construct: Also used for the Cdc20 baculovirus of the SF9 co-infection; also called purified baculovirus-expressed Cdc20; Baculovirus-expressed Cdc20; not shown: His tag
Assay: SF9 cells co-infected with Emi1 and Cdc20 baculoviruses, anti-Emi1 immunoprecipitation, Cdc20 immunoblot

T1 sequence (Q12834 whole entry): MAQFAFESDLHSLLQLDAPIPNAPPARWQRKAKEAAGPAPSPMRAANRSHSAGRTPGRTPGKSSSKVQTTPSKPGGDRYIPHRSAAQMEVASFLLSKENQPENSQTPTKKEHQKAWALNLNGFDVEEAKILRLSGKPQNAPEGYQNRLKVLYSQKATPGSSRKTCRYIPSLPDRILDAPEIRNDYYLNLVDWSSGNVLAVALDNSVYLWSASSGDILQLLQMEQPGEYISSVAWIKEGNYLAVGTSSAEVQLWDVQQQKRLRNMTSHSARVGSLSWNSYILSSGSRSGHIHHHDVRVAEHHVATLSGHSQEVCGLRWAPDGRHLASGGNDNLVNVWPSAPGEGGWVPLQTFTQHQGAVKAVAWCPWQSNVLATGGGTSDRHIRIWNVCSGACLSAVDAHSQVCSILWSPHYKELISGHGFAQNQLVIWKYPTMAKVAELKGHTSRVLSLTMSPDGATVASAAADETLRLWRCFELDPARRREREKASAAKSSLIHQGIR

B1: Xenopus Emi1 (Early Mitotic Inhibitor 1), full-length wild type (other)
chain: MMCGFASNQSPKKLSSKKSSATNVHLEISPVKHHPPCKVYENVQGSCLDSAICTTVAKCADLTDDLPVHNKENLLHRLNDLETNSYEEYSALQDSGYSSILQNDSPCQDETDRKVSDIQVRETPKNFMSYQRPFHTLSKINLPILRFEEAVCSTLKKMRKTNKKIDWNAVDVVCGGNYGLEHLIGKSMGLERFDILAELFHRDFKHLLTKILRHLSAMDLINVISVSTTWRKLLQKDNWAYNAYKLGCKELCEKRAKVSSHTATRDESLCRVPLASVQKVAASSLCTSKKQSKNKNGGLSCNRLAEFIEVAQTLKNDQSLKVCVDCGSPAKHDPCLHRAICTRESCKLDFCTRCSCKYHFSKSCLMSKPGSYRIPSEPLPGSKKSKQNLRRL
notes: 392 residues; also called xEmi1; Emi1p
binding result: binds
